According to patent US20130252987A1, “METHOD OF REGULATING PLASMA LIPOPROTEINS” (MCMASTER UNIVERSITY, priority 2010, published 2013):

Columns and labels:
[1] = system: primary human hepatocytes; experiment: LDL receptor protein in primary human hepatocytes; assay type: cell-based; details: 50 ng/mL, 24 hours
Description: Cryopreserved plateable human hepatocytes, metabolism qualified from multiple normal human donors, were obtained from CellzDirect (Invitrogen, NC). The cells were seeded at 1×10^6 cells/well in a 6-well collagen coated plate according to the manufacturer's instructions (CellzDirect, Invitrogen, NC). The cells were incubated at 37° C. with 5% CO2 for 4 hours to allow the cells to adhere. The plating media was replaced and the cells incubated for 16 hours prior to human resistin 50 ng/mL treatment for 24 hours.
To determine if the above findings in immortalized HepG2 cells are relevant to humans, primary human hepatocytes […] (Invitrogen) were treated with human resistin at the optimum 50 ng/mL dose for 24 hours. […] While the magnitude of the inhibitory effect of human resistin on LDL receptor protein expression was not as large as with HepG2 cells, this was expected as primary hepatocytes are not as metabolically active as cultured hepatoma HepG2 hepatocytes.

human PCSK9 = experiment: PCSK9 siRNA studies in HepG2 cells; assay type: cell-based
Description: Four siRNAs targeting human PCSK9 synthesized by Qiagen (Qiagen, MD) were purchased and tested. The siRNAs were transfected into HepG2 cells at a final concentration of 10 nM, using HiPerFect transfection reagent (Qiagen, MD) at 0.5% final volume. The siRNA that produced the maximum decrease in PCSK9 mRNA and protein expression in HepG2 cells (70% knockdown by Western blot 24 hours post-transfection) was chosen for further experiments. As a negative control, HepG2 cells were transfected with a scrambled siRNA control vector in HiPerFect (both Qiagen, MD). As a positive control, HepG2 cells were transfected with siRNA targeting the constitutively expressed GAPDH gene, using HiPerFect (Qiagen, MD). Western blots against PCSK9 (Caymen Chemicals, MI), LDL receptor (Fitzgerald International, CA) and GAPDH (Sigma, Mo.) were done in control untreated HepG2 cells, cells transfected with the optimal PCSK9 siRNA (Qiagen, MD) and cells treated with human resistin (50 ng/mL) plus PCSK9 siRNA 24 hours post-transfection.
The extent of the role of PCSK9 in the resistin mediated reduction in hepatocyte LDL receptor levels was examined. […] PCSK9 protein levels in hepatocytes were next assessed in response to PCSK9 siRNA administration, with and without resistin. […]

[2] = system: primary mouse hepatocytes from wildtype littermates; experiment: LDL receptor and PCSK9 protein in wild-type mouse hepatocytes; assay type: cell-based; details: wild-type mice hepatocytes, 50 ng/mL, 24 hours
Description: Animal ethics approval was received for the mouse protocols to follow. Primary mouse hepatocytes from PCSK9 knockout mice (C57Bl/6 background) or their wildtype littermates were isolated by perfusing the liver via the hepatic portal vein with a 5 mM EGTA in Leffert's Buffer (10 mM Hepes; 3 mM KCl, 0.13 M NaCl, 1 mM NaH2PO4, 10 mM D-glucose) followed by a 0.3 mg/ml collagenase in 0.0279% CaCl2. Cells were then filtered through a 70 uM nylon strainer and centrifuged at 760 rpm for 5 min. The cells were then passed through a CHRM gradient (Invitrogen, NC). Viability of cells ranged from 80 to 95%. […] Mouse LDL receptor and PCSK9 protein in cell lysates were measured via immunoblotting, as described above, using the following primary antibodies: mouse LDL receptor (abcam, MA), mouse PCSK9 (abcam, MA) and mouse GAPDH (Cell Signaling, MA). […]
To then more directly quantify the role of PCSK9 in the resistin mediated reduction in hepatocyte LDL receptor levels, hepatocytes isolated and cultured from wild-type mice were treated with resistin, and compared to resistin-treated hepatocytes from PCSK9 knockout mice.

HepG2 cells = experiment: immunoblotting for LDL receptor and PCSK9 in HepG2 cells; details: 24 hours
Description: Cells were propagated in 10% FBS-containing DMEM supplemented with 1% penicillin-streptomycin and 0.06% L-glutamine (584 mg/L) at 37° C., 5% CO2. During treatment experiments with human recombinant resistin (Calbiochem, UK) and/or lovastatin (Sigma, Mo.), the media was changed to 1% FBS-containing DMEM. All of the experiments to follow were performed at least three times and representative results are shown. Cells were stimulated with resistin at various doses (0, 10, 25, 50, and 100 ng/mL) for 24 hours or with a single dose at 50 ng/mL resistin. In other experiments, the microsomal triglyceride transfer protein (MTP) inhibitor, CP-346086, was administered at 1.3 nM, either alone or together with resistin (50 ng/mL) for 24 hours. Lovastatin was administered at 1 to 5 μM for 24 hours to stimulate the cells, either alone or in combination with resistin (50 ng/mL). Unless otherwise indicated, all experiments were performed in triplicate in three independent experiments.
Cell lysates collected with RIPA buffer (50 mM Tris, 150 mM sodium chloride, 1% NP-40, 12 mM sodium deoxycholate, 3.5 mM SDS, pH 7.4) and protease inhibitor cocktail (Roche Diagnostics, QC) were analyzed for human LDL receptor and PCSK9 as previously described (Rashid et al. Proc Nall Acad Sci U S A 2005; 102:5374-9). Equivalent amounts of total protein, determined by Bradford reaction was subjected to sodium dodecyl sulfate polyacrylamide gel electrophoresis (SDS-PAGE), transferred onto nitrocellulose membranes (BioRad, CA) and immunoblotted using antibodies against the LDL receptor (Fitzgerald International, CA) and PCSK9 (Cayman Chemicals, MI). Horseradish peroxidase-conjugated antibodies (BioRad, CA) were used as secondary antibodies. Immunoreactive bands were visualized with a chemiluminescence kit (PerkinElmer Life Sciences, MA). The blots were exposed to KODAK Biomax films, and the signal was quantified by densitometry using Quantity One version 4.6.7. software (Bio Rad, CA).
All of the experiments were performed at least three times and representative results are shown. Dose-response experiments were performed in HepG2 cells with 0, 10, 25, 50, 75 and 100 ng/mL of human resistin for 24 hours. Western blots were then performed on cell lysates to detect the cellular expression of LDL receptor protein.

B1: human resistin: recombinant lyophilized purified human resistin (Calbiochem); cysteine-rich cytokine, single 12 kDa band (protein)
chain: KTLCSMEEAINERIQEVAGSLIFRAISSIGLECQSVTSRGDLATCPRGFAVTGCTCGSACGSWDVRAETTCHCQCAGMDWTGARCCRVQP
With B1 the “LDL receptor protein versus untreated control cells” value [1] was “significantly reduced”, the “effect on LDL receptor elevation induced with PCSK9 siRNA” value (human PCSK9; resistin 50 ng/mL plus PCSK9 siRNA) was “reversed” and the “cellular PCSK9 levels compared with siRNA treatment alone” value (human PCSK9; resistin plus PCSK9 siRNA) was “enhanced”. The PCSK9 levels [2] was “increased PCSK9 levels significantly”, the “decrease in LDL receptor protein levels compared with untreated hepatocytes” value [2] was 40% and the “reduction of LDL receptor protein expression” value (HepG2 cells; 25 ng/mL resistin) was 30%. For the same molecule, the “decrease in cellular LDL receptor protein expression” value (HepG2 cells; 50 ng/mL resistin) was 40%, the “decrease in cellular LDL receptor protein expression” value (HepG2 cells; 75 ng/mL resistin) was 40% and the “increase in cellular PCSK9 protein” value (HepG2 cells; resistin 50 ng/mL, with lovastatin 5 μM) was 50%.
